This is an account of results in publication PMC12079402 (Protein Science : A Publication of the Protein Society, 2025).

The chains are these.
B1: TAZ2 domain of HAC1, HAC1-TAZ2(1574-1697) (domain or fragment, Arabidopsis, UniProt Q9C5X9 1574-1697, looked up)
chain: NAQNKEARQLRVLQLRKMLDLLVHASQCRSAHCQYPNCRKVKGLFRHGINCKVRASGGCVLCKKMWYLLQLHARACKESECHVPRCRDLKEHLRRLQQQSDSRRRAAVMEMMRQRAAEVAGGSG
B2: RST domain of Radical-Induced Cell Death1 (RCD1), RCD1-RST(499-572) (domain or fragment, Arabidopsis, UniProt Q8RY59 499-572, looked up)
chain: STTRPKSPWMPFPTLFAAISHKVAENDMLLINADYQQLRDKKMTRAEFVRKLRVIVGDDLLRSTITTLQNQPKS
B3: KIX domain of HAC1, HAC1-KIX(43-134) (domain or fragment, Arabidopsis, UniProt Q9C5X9 43-134, looked up)
chain: GPSRVSPVDNDILKLRQAMRIRIFNILQQKQPSPADEASKAKYMDVARRLEEGLFKIANTKEDYVNPSTLEPRLASLIKGRQLNNYNQRHAN
B4: ANAC046(172-222, S175W), fragment containing AD1/M1-2 (domain or fragment, Arabidopsis thaliana, UniProt Q9SQQ6 172-222, looked up)
chain: NAPWTTITTTKQLSRIDSLDNIDHLLDFSSLPPLIDPGFLGQPGPSFSGAR
B5: ANAC046(300-338), fragment containing AD2/M5 with its context (domain or fragment, Arabidopsis thaliana, UniProt Q9SQQ6 300-338, looked up)
chain: ATPEISSYPMMMNPAMMDGSKSACDGLDDLIFWEDLYTS
B6: ACID domain of MEDIATOR subunit 25 (MED25), MED25-ACID(532-680) (domain or fragment, Arabidopsis, UniProt Q7XYY2 532-680, looked up)
chain: SNSSAPNMQLSQPSSGAMQTSQSKYVKVWEGNLSGQRQGQPVLITRLEGYRSASASDSLAANWPPTMQIVRLISQDHMNNKQYVGKADFLVFRAMSQHGFLGQLQDKKLCAVIQLPSQTLLLSVSDKACRLIGMLFPGDMVVFKPQIPN
B7: TAZ1 domain of HAC1, HAC1-TAZ1(626-724) (domain or fragment, Arabidopsis, UniProt Q9C5X9 626-724, looked up)
chain: GNGNRDPRFKNQQKWLLFLRHARHCKAPEGKCPDRNCVTVQKLWKHMDSCAAPQCSYPRCLPTKTLINHHRSCKEPNCPVCIPVKAYLQQQANARSLAR

The target in assay [1] is T1, ANAC046 intrinsically disordered region, ANAC046(172-338) (Arabidopsis thaliana, UniProt Q9SQQ6 172-338).
T1 sequence (looked up): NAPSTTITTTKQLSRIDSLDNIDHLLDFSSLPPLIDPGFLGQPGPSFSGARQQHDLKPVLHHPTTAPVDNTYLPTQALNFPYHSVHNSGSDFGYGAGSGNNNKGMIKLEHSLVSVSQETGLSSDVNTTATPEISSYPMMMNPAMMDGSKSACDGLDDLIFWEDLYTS
The assay is described as follows: NMR titration.

Assay [2] deals with T1, ANAC046 intrinsically disordered …. In words: ITC. On the technique in general: ITC needs no label: the signal is the heat of the interaction.
The target in assay [3] is B7. In words: NMR titration.
The target in assay [4] is B2. The assay is described as follows: NMR titration.
For assay [5], the target named is B7. The assay is described as follows: ITC.
For assay [6], the target named is B2. The assay is described as follows: ITC.
Assay [7] has as its target B5. In words: ITC.
Assay [8] addresses T1, ANAC046 intrinsically disordered …. In words: ITC. The source holds these as a separate data set.

The Kd is the free concentration of one partner at which half of the binding sites on the other are occupied at equilibrium, for simple one-to-one binding. The low end stands for higher affinity, the high end for lower affinity. The term stoichiometry N denotes a count of units in the complex or per binding partner.

As to B1, the binding result in assay [1] is recorded as “binds”.

In the case of B2, in assay [2], the Kd came to 0.2 µM and the dH was -5.5 kcal/mol.

As to B3, in assay [1], the binding result is recorded as “binds”.

On to B4, for which the Kd in assay [3] worked out at 112 µM; in assay [4], 148 µM.

Regarding B5, in assay [5], the Kd is 6 µM. Further, in assay [6], the Kd stood at 0.12 µM, the dH is -7.41 kcal/mol and the “stoichiometry N” value came to 0.8.

Turning to B6, the binding result in assay [1] is recorded as “binds”.

Regarding B7, in assay [7], the dH was -5.98 kcal/mol and the “stoichiometry N” value amounted to 0.97. Further, in assay [8], the “dH, site AD1/M1-2 (two-site fit)” value is -15.5 kcal/mol and the “dH, site AD2/M5 (two-site fit)” value is -5.98 kcal/mol.
